Results published in patent US20220033522A1 (Janssen / Centocor, published 2022).
Like-named read-outs stand apart in the source and are kept apart here.

Key:
[1] = molecular target: T1, polymeric immunoglobulin receptor (pIgR), his-tagged (human, UniProt P01833 19-638); assay: BLI (Octet), his-tagged pIgR on anti-His biosensor
[2] = molecular target: T2, SARS-CoV-2 spike glycoprotein (his-tagged SARS-CoV-2 RBD) (SARS-CoV-2, UniProt P0DTC2 319-541); assay: BLI (Octet), his-tagged SARS-CoV-2 RBD on anti-His biosensor
T2 construct: domain: RBD; also called COVID-19 RBD; wild-type spike glycoprotein

[3] = molecular target: T3, biotinylated SARS-CoV-2 spike glycoprotein (SARS-CoV-2, UniProt P0DTC2 16-1213)
[4] = molecular target: T3, biotinylated SARS-CoV-2 spike …; remark: listed apart in the source
[5] = molecular target: T1, polymeric immunoglobulin receptor …; assay: BLI (Octet): his-tagged pIgR on anti-His (HIS2) biosensors, protein in solution at 10 µg/mL, 90 s association, 90 s dissociation

T1 sequence (P01833 19-638 limits assumed): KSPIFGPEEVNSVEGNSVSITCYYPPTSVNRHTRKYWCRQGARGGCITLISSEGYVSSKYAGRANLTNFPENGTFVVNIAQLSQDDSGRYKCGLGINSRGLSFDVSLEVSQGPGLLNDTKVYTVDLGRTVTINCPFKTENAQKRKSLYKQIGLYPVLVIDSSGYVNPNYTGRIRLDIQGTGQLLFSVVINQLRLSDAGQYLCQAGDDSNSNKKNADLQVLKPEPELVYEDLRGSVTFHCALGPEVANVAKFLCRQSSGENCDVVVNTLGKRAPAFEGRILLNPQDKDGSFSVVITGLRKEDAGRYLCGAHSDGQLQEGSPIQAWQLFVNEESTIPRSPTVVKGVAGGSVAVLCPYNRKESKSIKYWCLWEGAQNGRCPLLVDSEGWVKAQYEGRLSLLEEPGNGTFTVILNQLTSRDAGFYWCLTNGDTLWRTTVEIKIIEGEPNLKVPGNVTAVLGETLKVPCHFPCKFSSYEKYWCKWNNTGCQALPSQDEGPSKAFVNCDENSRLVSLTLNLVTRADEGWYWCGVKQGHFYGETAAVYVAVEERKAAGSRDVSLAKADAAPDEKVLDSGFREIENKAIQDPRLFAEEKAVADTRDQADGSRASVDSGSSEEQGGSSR

B1: CR3022 (antibody)
heavy: not shown
light: […]
binding result [1]: no binding (tested: 10 µg/mL)

B2: SAD-S35 (antibody, human IgG1, kappa, V domains shown)
VH: QVQLVESGGGLVQPGGSLRLSCAASGITVSSNYMSWVRQAPGKGLEWVSVIYSGGSTYYADSVKGRFSISRDNSKNTLYLQMNSLRAEDTAVYYCARDLQERGGMDVWGQGTTVTVSS
VL: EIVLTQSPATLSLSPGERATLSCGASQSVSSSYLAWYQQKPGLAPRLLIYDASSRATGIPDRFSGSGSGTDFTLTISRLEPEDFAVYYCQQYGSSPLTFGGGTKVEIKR
notes: also called Acro Biosystems cat. #SAD-S35
Kd [2]: 14.3 nM | Relative Kd (compared to CR3022) [2]: 12 | koff [2]: 8.91e-06 s⁻¹ | IC50 [3]: 0.323 nM

B3: D001 (antibody, V domains shown)
VH: QVQLQQSGPELMKPGASVKISCKASGYSFTNYYIHWVKQSHGKSLEWIGYIDPFNGGTSDNLKFKGAATLTVDKSSSTAYMHLSSLTSEDSAVYYCARSEYDPYYVMDYWGQGTSVTVSS
VL: EIVLTQSPDTLSVTPGDSVSLSCRASQSISSNLHWYQQKSHESPRLLIKYASQSISGIPSRFSGSGSGTDFTLSINSVETEDFGIYFCQQTNFWPYTFGGGTKLEIKR
notes: also called Sino Biological cat. #40150-D001
Kd [2]: 15 nM | koff [2]: 1.1e-05 s⁻¹ | IC50 [4]: 0.2 nM | binding result [5]: no binding (tested: 10 µg/mL) | IC50 [3]: 0.299 nM
